# Test results published in US20240270857A1 (CHIA TAI TIANQING PHARMACEUTICAL GROUP, published 2024).
# T1: IL-36R naturally expressed on OVCAR8 cells and on normal human epidermal keratinocytes (NHK cells) (human, UniProt Q9HB29 20-575)
# T1 sequence (looked up): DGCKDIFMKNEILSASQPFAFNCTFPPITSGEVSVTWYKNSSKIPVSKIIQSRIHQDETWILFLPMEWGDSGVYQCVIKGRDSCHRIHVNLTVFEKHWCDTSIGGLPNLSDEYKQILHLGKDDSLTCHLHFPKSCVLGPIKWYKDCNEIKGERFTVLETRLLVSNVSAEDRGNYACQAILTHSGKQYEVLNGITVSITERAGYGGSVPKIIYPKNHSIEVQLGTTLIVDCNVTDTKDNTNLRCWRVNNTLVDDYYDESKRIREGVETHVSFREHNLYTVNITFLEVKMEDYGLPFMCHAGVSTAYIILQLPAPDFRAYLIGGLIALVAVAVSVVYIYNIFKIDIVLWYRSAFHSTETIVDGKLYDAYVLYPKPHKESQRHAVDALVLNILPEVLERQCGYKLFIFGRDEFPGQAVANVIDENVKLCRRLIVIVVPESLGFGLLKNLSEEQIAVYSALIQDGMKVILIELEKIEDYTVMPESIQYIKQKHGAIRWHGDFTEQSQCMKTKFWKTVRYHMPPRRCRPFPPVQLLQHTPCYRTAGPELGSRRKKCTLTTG
# T2: Human IL-1Rrp2/IL-1R6 protein, His Tag (ACROBiosystems, IL2-H52H6) (human, UniProt Q9HB29 20-335)
# T2 construct: Bought protein; the soluble protein is likely only the extracellular part; also called hIL-36R; human IL36R antigen; not shown: His tag
# T2 sequence: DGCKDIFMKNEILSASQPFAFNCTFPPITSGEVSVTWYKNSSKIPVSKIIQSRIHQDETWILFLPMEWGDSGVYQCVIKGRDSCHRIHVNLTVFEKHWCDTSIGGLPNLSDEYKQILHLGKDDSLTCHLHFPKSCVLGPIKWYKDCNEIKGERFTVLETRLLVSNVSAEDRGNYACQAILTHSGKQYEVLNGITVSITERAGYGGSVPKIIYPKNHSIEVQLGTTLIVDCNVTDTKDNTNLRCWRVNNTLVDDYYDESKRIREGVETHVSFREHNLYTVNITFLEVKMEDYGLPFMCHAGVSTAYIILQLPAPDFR
# What was measured:
# [1] = target: T1, IL-36R naturally expressed on OVCAR8 …; experiment: cell-based or functional assay
# [2] = target: T2, Human IL-1Rrp2/IL-1R6 protein, His Tag …; experiment: BLI (ForteBio Octet), antibody on ProA sensor, 1:1 model
# Protocol: The affinity of anti-IL-36R antibodies to CynoIL36R-ECD mFc and human IL-1Rrp2/IL-IR6 protein, His Tag (ACROBiosystems, IL2-H52H6) was measured by a ForteBio molecular interaction instrument. […] And then the biosensor was used to bind CynoIL36R-ECD mFc or human IL-1Rrp2/IL-1R6 protein, His Tag which was diluted by a gradient (the initial concentration was 200 nM, 2-fold gradient dilution), the response signals were detected in real time using a Fortebio molecular interaction instrument (SARTORIUS, octet red 96e), and association and dissociation curves were obtained. After the completion of dissociation in each cycle, the biosensor was regenerated for the next capture; the procedure was repeated until the affinity of the different anti-IL-36R antibodies for IL-36R was determined. The resulting data were analyzed by Fortebio Data Analysis 11.0 software in a 1:1 (Langmuir) binding model to determine kₐ (kₒₙ) and kd (koff) values, and the dissociation constant KD was calculated by KD=kd/kₐ. The detection method essentially followed the manufacturer's recommendations, and more information could be found at www.fortebio.com.
# Affinity, binding and blocking assays for humanized antibodies hz72C1-1.1, hz72C1-1.2, hz72C1-1.3, hz72C1-2.1, hz72C1-2.2 and hz72C1-2.3 as well as hz84C4-1.1, hz84C4-1.2, hz84C4-1.3, hz84C4-1.4, hz84C4-1.5, hz84C4-2.1, hz84C4-2.2, hz84C4-2.3, hz84C4-2.4 and hz84C4-2.5 were performed according to the methods of Example 4, Example 5. Example 6, Example 7 and Example 8.
Binder,IC50 (M); hIL36α; IL-8 production [1],IC50 (M); hIL36αβγ; IL-8 production [1],IC50 (M); hIL36β; IL-8 production [1],IC50 (M); hIL36γ; IL-8 production [1],Maximum inhibition rate %; hIL36α; IL-8 production [1],Maximum inhibition rate %; hIL36αβγ; IL-8 production [1],Maximum inhibition rate %; hIL36β; IL-8 production [1],Maximum inhibition rate %; hIL36γ; IL-8 production [1],Kd [2],koff [2],kon [2],IC50; hIL36γ; IL-8 production [1]
"hz84C4-1.1 (antibody, human IgG4 S228P, kappa, V domains shown, Humanized, human IgG4 / kappa) VH: QVQLVQSGAEVKKPGASVKVSCKASGYFFTSYWMNWVRQAPGQGLEWMGMIHPYDSETRYAQKFQGRVTMTVDKSTSTVYMELSSLRSEDTAVYYCASSTTAFAYWGQGTLVTVSS VL: DIQMTQSPSSLSASVGDRVTITCRASQDIGNALNWYQQKPGKAPKRLIYATSSLDPGVPSRFSGSRSGTDFTLTISSLQPEDFATYYCLQYASSPYTFGQGTKVEIKR",6.38e-12 M,6.51e-12 M,7.61e-12 M,4.77e-12 M,99.7%,99.9%,99.3%,99.6%,958 pM,0.000102 s⁻¹,107000 M⁻¹ s⁻¹,
"hz84C4-1.3 (antibody, human IgG4 S228P, kappa, V domains shown, Humanized, human IgG4 / kappa) VH: QVQLVQSGAEVKKPGASVKVSCKASGYFFTSYWMNWVRQAPGQGLEWMGMIYPYDSETRYAQKFQGRVTMTVDKSTSTVYMELSSLRSEDTAVYYCASSTTAFAYWGQGTLVTVSS VL: DIQMTQSPSSLSASVGDRVTITCRASQDIGNALNWYQQKPGKAPKRLIYATSSLDPGVPSRFSGSRSGTDFTLTISSLQPEDFATYYCLQYASSPYTFGQGTKVEIKR",,5.33e-12 M,,~6.46e-12 M,20.6%,44.2%,21.8%,59.5%,527 pM,3.26e-05 s⁻¹,61900 M⁻¹ s⁻¹,
"hz84C4-1.5 (antibody, human IgG4 S228P, kappa, V domains shown, Humanized, human IgG4 / kappa) VH: QVQLVQSGAEVKKPGASVKVSCKVSGYFFTSYWMNWVNQAPGQGLEWMGMIHPYDSETRLAQKFKGRVTMTVDKSTSTVYMELSSLRSEDTAVYYCASSTTAFAYWGQGTLVTVSS VL: DIQMTQSPSSLSASVGDRVTITCRASQDIGNALNWYQQKPGKAPKRLIYATSSLDPGVPSRFSGSRSGTDFTLTISSLQPEDFATYYCLQYASSPYTFGQGTKVEIKR",8.48e-12 M,7.24e-12 M,1.06e-11 M,5.29e-12 M,99.5%,99.3%,99.2%,99.6%,1340 pM,0.000134 s⁻¹,100000 M⁻¹ s⁻¹,
"hz84C4-2.3 (antibody, human IgG4 S228P, kappa, V domains shown, Humanized, human IgG4 / kappa) VH: QVQLVQSGAEVKKPGASVKVSCKASGYFFTSYWMNWVRQAPGQGLEWMGMIYPYDSETRYAQKFQGRVTMTVDKSTSTVYMELSSLRSEDTAVYYCASSTTAFAYWGQGTLVTVSS VL: DIQMTQSPSSLSASVGDRVTITCRASQDIGNALNWLQQKPGKAPKRLIYATSSLDPGVPSRFSGSRSGTDYTLTISSLQPEDFATYYCLQYASSPYTFGQGTKVEIKR",~6.47e-12 M,~4.34e-12 M,3.42e-12 M,,28.4%,40.6%,18.6%,41.5%,831 pM,5.12e-05 s⁻¹,61600 M⁻¹ s⁻¹,6.2 pM
"hz84C4-2.4 (antibody, human IgG4 S228P, kappa, V domains shown, Humanized, human IgG4 / kappa) VH: QVQLVQSGAEVKKPGASVKVSCKASGYYFTSYWMNWVRQAPGQGLEWMGMIHPYDSETRLAQKFKGRVTMTVDKSTSTVYMELSSLRSEDTAVYYCASSTTAFAYWGQGTLVTVSS VL: DIQMTQSPSSLSASVGDRVTITCRASQDIGNALNWLQQKPGKAPKRLIYATSSLDPGVPSRFSGSRSGTDYTLTISSLQPEDFATYYCLQYASSPYTFGQGTKVEIKR",7.52e-12 M,2.58e-12 M,7.24e-12 M,5.15e-12 M,99.5%,98.8%,99.1%,99.3%,1880 pM,0.000196 s⁻¹,105000 M⁻¹ s⁻¹,
"hz84C4-2.2 (antibody, human IgG4 S228P, kappa, V domains shown, Humanized, human IgG4 / kappa) VH: QVQLVQSGAEVKKPGASVKVSCKASGYFFTSYWMNWVRQAPGQGLEWMGYIHPYDSETRYAQKFQGRVTMTVDKSTSTVYMELSSLRSEDTAVYYCASSTTAFAYWGQGTLVTVSS VL: DIQMTQSPSSLSASVGDRVTITCRASQDIGNALNWLQQKPGKAPKRLIYATSSLDPGVPSRFSGSRSGTDYTLTISSLQPEDFATYYCLQYASSPYTFGQGTKVEIKR",1.19e-11 M,1.31e-11 M,8.59e-12 M,8.61e-12 M,99.2%,99.2%,98.5%,98.7%,1550 pM,0.000142 s⁻¹,91500 M⁻¹ s⁻¹,
"hz84C4-1.4 (antibody, human IgG4 S228P, kappa, V domains shown, Humanized, human IgG4 / kappa) VH: QVQLVQSGAEVKKPGASVKVSCKASGYYFTSYWMNWVRQAPGQGLEWMGMIHPYDSETRLAQKFKGRVTMTVDKSTSTVYMELSSLRSEDTAVYYCASSTTAFAYWGQGTLVTVSS VL: DIQMTQSPSSLSASVGDRVTITCRASQDIGNALNWYQQKPGKAPKRLIYATSSLDPGVPSRFSGSRSGTDFTLTISSLQPEDFATYYCLQYASSPYTFGQGTKVEIKR",1.42e-11 M,1.12e-11 M,1.46e-11 M,7.75e-12 M,99.5%,98.9%,98.5%,99.4%,1980 pM,0.000236 s⁻¹,119000 M⁻¹ s⁻¹,
"hz84C4-1.2 (antibody, human IgG4 S228P, kappa, V domains shown, Humanized, human IgG4 / kappa) VH: QVQLVQSGAEVKKPGASVKVSCKASGYFFTSYWMNWVRQAPGQGLEWMGYIHPYDSETRYAQKFQGRVTMTVDKSTSTVYMELSSLRSEDTAVYYCASSTTAFAYWGQGTLVTVSS VL: DIQMTQSPSSLSASVGDRVTITCRASQDIGNALNWYQQKPGKAPKRLIYATSSLDPGVPSRFSGSRSGTDFTLTISSLQPEDFATYYCLQYASSPYTFGQGTKVEIKR",8.5e-12 M,7.75e-12 M,1.6e-12 M,8.99e-12 M,99.1%,99.2%,98.9%,99.5%,1610 pM,0.000161 s⁻¹,100000 M⁻¹ s⁻¹,
"hz84C4-2.1 (antibody, human IgG4 S228P, kappa, V domains shown, Humanized, human IgG4 / kappa) VH: QVQLVQSGAEVKKPGASVKVSCKASGYFFTSYWMNWVRQAPGQGLEWMGMIHPYDSETRYAQKFQGRVTMTVDKSTSTVYMELSSLRSEDTAVYYCASSTTAFAYWGQGTLVTVSS VL: DIQMTQSPSSLSASVGDRVTITCRASQDIGNALNWLQQKPGKAPKRLIYATSSLDPGVPSRFSGSRSGTDYTLTISSLQPEDFATYYCLQYASSPYTFGQGTKVEIKR",1.09e-11 M,3.66e-12 M,5.7e-12 M,6.45e-12 M,99.9%,99.9%,99.3%,99.6%,1220 pM,0.000116 s⁻¹,94500 M⁻¹ s⁻¹,
